Assay results taken from article PMC11468790, “New Bacterial Aryl Sulfotransferases: Effective Tools for Sulfation of Polyphenols” (Journal of Agricultural and Food Chemistry, 2024).

Substrate: O=[N+]([O-])c1ccc(OS(=O)(=O)O)cc1
Experiment: purified protein
Assay type: biochemical, Escherichia coli
Details: varied donor pNPS 0.02-50 mM, acceptor phenol (5-200 mM), 30 °C, activity buffer Tris-glycine pH 8.9

B1: EcAST (Escherichia coli CFT073) (protein)
chain: AGFKPAPPAGQLGAVIVDPYGNAPLTALVDLDSHVISDVKVTVHGKGEKGVEISYPVGQESLKTYDGVPIFGLYQKFANKVTVEWKENGKVMKDDYVVHTSAIVNNYMDNRSISDLQQTKVIKVAPGFEDRLYLVNTHTFTAQGSDLHWHGEKDKNAGILDAGPATGALPFDIAPFTFIVDTEGEYRWWLDQDTFYDGRDRDINKRGYLMGIRETPRGTFTAVQGQHWYEFDMMGQVLEDHKLPRGFADATHESIETPNGTVLLRVGKSNYRRDDGVHVTTIRDHILEVDKSGRVVDVWDLTKILDPKRDALLGALDAGAVCVNVDLAHAGQQAKLEPDTPFGDALGVGPGRNWAHVNSIAYDAKDDSIILSSRHQGVVKIGRDKQVKWILAPSKGWEKPLASKLLKPVDANGKPITCNENGLCENSDFDFTYTQHTAWISSKGTLTIFDNGDGRHLEQPALPTMKYSRFVEYKIDEKKGTVQQVWEYGKERGYDFYSPITSIIEYQADRNTMFGFGGSIHLFDVGQPTVGKLNEIDYKTKEVKVEIDVLSDKPNQTHYRALLVRPQQMFK
notes: C-terminal His6 tag, pET-26b(+) NcoI/SacI, E. coli BL21(DE3)pLysS, IMAC, ca. 70 kDa
  Km: 710 ± 30 µM
  kcat: 41.1 ± 0.5 s⁻¹
  kcat/Km: 57000 M⁻¹ s⁻¹
